Data: patent US20200206312A1 (EISAI, published 2020)

Key:
[1] = target: T1, Recombinant human NRP1 with His Tag (Sino Biological Inc.; Cat #1001-H08H) (human, UniProt O14786-2 22-644); test: BLI (Octet Red96), biotinylated VEGF165 on streptavidin sensor, NRP1 in solution
T1 construct: also called Neuropilin 1
T1 sequence (looked up): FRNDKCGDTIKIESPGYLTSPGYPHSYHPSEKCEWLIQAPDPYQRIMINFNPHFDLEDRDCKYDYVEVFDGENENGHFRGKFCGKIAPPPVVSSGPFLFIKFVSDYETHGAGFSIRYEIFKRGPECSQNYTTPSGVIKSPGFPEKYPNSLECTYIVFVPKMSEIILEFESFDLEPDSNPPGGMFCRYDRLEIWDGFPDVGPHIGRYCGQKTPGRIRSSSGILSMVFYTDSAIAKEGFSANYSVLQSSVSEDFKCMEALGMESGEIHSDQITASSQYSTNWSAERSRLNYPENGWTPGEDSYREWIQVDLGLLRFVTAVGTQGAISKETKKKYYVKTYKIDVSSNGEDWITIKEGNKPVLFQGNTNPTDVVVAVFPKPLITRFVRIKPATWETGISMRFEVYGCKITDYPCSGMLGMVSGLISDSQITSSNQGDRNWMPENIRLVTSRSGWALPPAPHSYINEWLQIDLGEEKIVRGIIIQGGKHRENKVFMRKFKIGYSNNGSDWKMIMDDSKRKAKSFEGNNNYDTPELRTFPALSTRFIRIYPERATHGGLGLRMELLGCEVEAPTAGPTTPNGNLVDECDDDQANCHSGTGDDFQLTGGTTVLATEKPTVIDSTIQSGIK

[2] = target: T1, Recombinant human NRP1 with His Tag …; test: BLI (Octet Red96), biotinylated VEGF165 on streptavidin sensor, NRP1 in solution; value 1 of 6 in the cell
[3] = target: T1, Recombinant human NRP1 with His Tag …; test: BLI (Octet Red96), biotinylated VEGF165 on streptavidin sensor, NRP1 in solution; value 2 of 6 in the cell
[4] = target: T1, Recombinant human NRP1 with His Tag …; test: BLI (Octet Red96), biotinylated VEGF165 on streptavidin sensor, NRP1 in solution; value 3 of 6 in the cell
[5] = target: T1, Recombinant human NRP1 with His Tag …; test: BLI (Octet Red96), biotinylated VEGF165 on streptavidin sensor, NRP1 in solution; value 4 of 6 in the cell
[6] = target: T1, Recombinant human NRP1 with His Tag …; test: BLI (Octet Red96), biotinylated VEGF165 on streptavidin sensor, NRP1 in solution; value 5 of 6 in the cell
[7] = target: T1, Recombinant human NRP1 with His Tag …; test: BLI (Octet Red96), biotinylated VEGF165 on streptavidin sensor, NRP1 in solution; value 6 of 6 in the cell

B1: Biotinylated recombinant Human VEGF165 (ACRO Biosystems; Cat # VE5-H8210) (ligand, UniProt P15692-4 27-191, looked up)
chain: APMAEGGGQNHHEVVKFMDVYQRSYCHPIETLVDIFQEYPDEIEYIFKPSCVPLMRCGGCCNDEGLECVPTEESNITMQIMRIKPHQGQHIGEMSFLQHNKCECRPKKDRARQENPCGPCSERRKHLFVQDPQTCKCSCKNTDSRCKARQLELNERTCRCDKPRR
notes: also called biotinylated VEGF
B1 gave a Kd [1] of 40 to 98 nM, a Kd [2] of 43 nM and a Kd [3] of 26 nM. It also gave a Kd [4] of 75 nM, a Kd [5] of 98 nM and a Kd [6] of 18 nM. For the same binder, the Kd [7] was 26 nM.
